As a reminder, the stoichiometry N is a count of units in the complex or per binding partner.

This note sets out measurements from publication PMC7519303.

In this experiment the target is SgmX-Strep (C-terminal Strep-tagged SgmX variant) (M. xanthus). Put plainly: SDS/PAGE of the purified protein; purified SgmX-Strep; band of ~233 kDa, heat- and detergent-resistant dimer.

In the case of “SgmX-Strep (C-terminal Strep-tagged SgmX variant) (natural protein)”, the stoichiometry N was 2.
